# According to the DeepSol protein solubility set:
# Assay: soluble on expression in E. coli; label from the status in PepcDB or PDB records
row,Sequence,soluble on expression in E. coli
1,GPGSMLYRTAVPVPADALVQRNLEFTRTAWKAGLRPDQRDANQLRVVEIDFPLLSRDVVQVKCGNTVATATISCDLVEPSPYRPKHGFFEVHARQLLNERDPLDQSKEIKRISMYLTRLLSGSVLETESLCVIPGRRVWSIDAEVIIVNNDGNAQDVAQWAVMTALQHVRRPELTIRGEDVIVHPPHERDPVPLPLHHIPLSFTFAVCANPQEVQLAVRAATLRSAHAPRAGASSGANADEGDGEAEELGWSSDALQVVVDPSLEEATAAACTVSVALNGEGHVCSLEKADGCYVSIAYLEQCMEIATKLTQALLSQMKESMEAHNAKRTEAVRSQFLWAQQRHGIQAIATPGDEGEHARKSAKTEK,soluble
2,GPGSMNFVPLYRSILKGIHTAKQHPYHLQDIRFILSYPLVKPVYYATKPNSELKQLEPLQGIDTPLLVRTCLEDLRRAFMSVPSKDMSVAQQFVYMRELGWLKCRLENIASESTDAILKEARVVASEVTDDDFLDDQIIVRQGRPNNKELQCVQTGNNGSEMGDCGYGVASAGAIGLRYEMFILQNVAPLPLVKEFLSSFSQNTEAAAAAATSNQKLQEFARRYVPRTVVCQNEDLTLTITVNAFDAALTRKSTEENNPFARVHRYFMIRFDLSPSDPLVLGVDVVNSYFLRLDAGSAELVEDIGYLHAADVWKLSQELRVKGSGSSTDSDDTKDNGCVDGSVSSKEHAAEGNVNCMDHNEHEHNPTSHFELSFINPSDGPTIMKGQLYYTLRTKSSASASKMNVGVISFGHILLFNDE,not soluble
3,GPGSMPADKSYALKQVQTFGKKKTAIAVATVTKAAQCNIKVNGVPLQQILPDTLRAKIMEAITVVGSKYYSRLRIDVAVHGGGQVSQAYAARQAIAKGLIAFFQKYHNEVEKAALKDKFLAYDKFLLIADPRRCEPKKWGRHSARTRFTKSYR,soluble
4,GPGSMPPRRKSECLSSYAVDTTPSFQDEKFIEQLLHFVGANDEVSLLTMTAVALGAECYQVDLGQQIVVDARLDFINFCAKQGYCAAKVVHLLKWLCTFQERVEDGCNTQEMQEEVIAFVTSEVEEEWKWKRALQAEEALWEVQSSSKTSARRGHRAAEKVVEETEAVSTVPKENIYLQREDIGPFSTWLIQGIVQHASLYHYVATHARMVGEPEEFNYFLEVPVSAPPLRNALAPESVPQEPPLAKAQQDVEEQRASELETYKKEYEEAMALEQLRLQTIQNERDMKVFIENEGSMRAVEDTYESLQVDLSKRQRQILERITAAEKALGIFPFVQPQ,not soluble
5,GPGSMPQSAVMNVMVQAAMKAGRSLVRDYGEVQNLQVSLKGPADYVSQADRKAEKIIFNELSKARPKFGFLMEESEEIIGEDSQHRFIVDPLDGTTNFLHGIPFFAVSIALESQGKIVAGVIYNPINDELFTAERGSGAFFNDRRCRVSARRRLEDCVIATGMPHLGRPGHGTYLIELRNVMAEVSGIRRFGTAALDLAYVAAGRTDGFWEDNLQIWDMAAGILMVREAGGFVTDKEGGNDIFRKKNIIAGNEHIRIKLERALKKGI,soluble
6,GPGSMQAARLPTRIATGDGEDAPQTPPVHAPATPAATDEQETDQPQQAVGEATTPADRAGFQPPSAEALATRQSRNSAGAEKMGGGQRLRDHTTAQRRLMQDYRTFQKNMAEGTSSNITALPVDGDFFHWHAVISGPCDTPWEGGLFKLDLIFGDDYPFSPPKVRFRTKDVFHPNVYVDGNICMDTLKSSWQSSLNLEALLISIQSLLSDPNPLSAANGAAARLLTENRSAYDEKIRALVEESLEQSFSMDDDSDDAEVDEEAV,soluble
7,GPGSMQPYGMSTSRTNRRPLVASRGGPNAPQRNYAMVTGPVDPSTSLIRYELPFSPADPKRSVKLRRRFGEPIEESVVDPNVRVVLDSFIPPRAWYDDDGVLWVQHASPKPASRTDTVETHEKLRRRLRETGAKRTGICPIRSLLLAECFLEVIRQVTVECWERGLVLLKIHAERVAAQTAHRELFESRVGYAFRLALKGEKDTSRVQQDLGKLKKRMEELAEEEKTLRQQCDEASARGEEEMLIVGKQHSDEVAAIKKEGILKRNQLEHMISMPSTP,soluble
8,GPGSMQSDFDNVETELRDIEETFTTGRMNAFGSASTQDAFVHELKRIAEIETQVFYRTCALLKSSHTNEHQLVTNMYASAQPPPQSQRSGPATTSPSSNLGDGSFRANSSGLESSMYRGPMNQRSQSSFASTVAGGLSGAPPSNSNIHSSSASRRQSRQGWENVSAGSPFPGVGDGGASSGAAPHIHRSEWGNEDGFADKAFEDVAAHFEELESQFFSLGDYLREISKHVIRLNDMSKQVNNGVNYGANGGVTGAPAAAANANGSSNNTDMLQTVGSMGRQDYPGSFIDPTSIGGGSGYGMDGPHS,soluble
9,GPGSMRGIARPTVATVGLSQQVVAFDEWVWALNELGGRESFRKNWRYYALRIDTVHFLMFVLDVLNGQALDEARQYLKEVTSHYHEVPLLVVFNNFREGHRRFDISEFEALIHLDKLRRRHGADVLSCVCDISVVHSKNRQLPRTLSSTLRTLSSLLKARSKSENGGDGGAPPVPKATTSFSASVVGGAAGDAAAGDGVVHS,not soluble
10,GPGSMRRFPPPPPTRTCAHERVKHAVPIPFRVTCFWPAMSAAPSEAFAEAETMEQLRLKGNACFADDPAEAAKYYTQAVQLYEERHGEDAACSLDEFTKSAGNALTCLFKMGETEQCAALAVRVLASNPILAKANAFYGRCALVDPSLDSVSTGFGTASAAALVHLCRAIYELPALEPNTRENIDEALTRLIGERVSVTETFARSPEAGVKLVRGQCGVGVEAIRTLPPLVEVVSLLTPFSVGAFEDFAGKGCCVECSKPIGLDVADAAAEEPNEDDGDEENDKDEGNVKATKEKPSTCTACNMVVYCSPACADAHREQHERFECARMTRLSDMMQGIEARKLDVPEQFFELAYHCITTLAGIKAKRAGHERVLTLTAHVDEVIQSLHPIGPLMCDLFKGEERPATLYTIIGVLCCNALELADPSGLGVAQALHAGNSIASFFNHSCTPNCAIDTVRHAIVTTRTIHVGEELSIAYIPQLYWPTRLRRERLSESYYFVCRCQRCESSNKDPFERALSMELPTARREATKHFHPIVQTTCATVRSRMVGDVSQKDADELSKLLRELSTHLFPFHYLCHEVRNCLSFVYAVLGQTRECLCSCLDELLMWECILPGALPVKRMKIENALQCVQGFGANVSDCSAALLPHLSRLALVYDAEGPI,not soluble
11,GPGSMRTQTFPQQPRAPGMLPHLSNGAAAPAAPQVPAVQEHTDVVHDTQFDYYGLQLATASSDRTIGIHVARAGAPLNRVATLTGHEGPVWMVSWAHPRFGNLLASASYDQKAIIWKEIRQGAPKWTPVHVIDIHHGSVNAVQWAPEEYGPVVATASSDGTVAITAYRDGCWQPSVKLSNNSNQIAHAMGATSVTFAPFKSELADHVVVASGGCDGHVRLWVSASSPERGLGFELHQVIEAHADWVRDVAFCPTSPASRFVILASCGQDKTVVMYRKPWDQLCAETSEGVSQATEWERSVIEFAEPVWRLSWAPSGEMLVVTNAKSEVFVLREGVDFTEPWIKLPLKDFQQ,not soluble
12,GPGSMSALNDSRTTSGRPLPGGKPYALRPEGIPPSLCGDNVGASRGGDSIGDFKTAFEQPHSIDSEEEGDVEAASSPEQRLRRVQRDVYRHERQIASLFSEKHEHCEHLATVYKELEKVLRKIQLAPLEDLKGHAASPSASTFCAPSSDEDGYAASSTVSALASSLQQRFHQVLQQHQDRVYDVLVDYRQQINKSEYETGRRLCAIEEAIAQIQSDVRELQHTASIQVEELRHVQQDVRQRVEAVAVQQEAQRAALDATREARDTKAAKLLSKIQDDVAGLRADAKAARTQQIESAKDVEEQIRSLLSAQHRTEEALGAHSASIAQLQNQDSLEGAFHEVKDWLGDLEKRMVSRGELLQWTASLQSEIHQMRRVTGGVLSHTIEPTAPGQDA,soluble
13,GPGSMSANDVQNPPVEDDEVPTLEAADTQQASKPSKRYAKAMAKMGLKPEPNISKVHIRKRAALSFVVNQPEVYRFPGTNTFLIFGEAQLGDTTMQTQEAAARAVSGALVEEVGTAGEETSELAGETPAAAAPSESKQTPDDVEIVEGEFDDKEIAVVMAQGKTDRIGAIRALRNNKGDIVNAIMELTMDPN,not soluble
14,GPGSMSASNSCTVEEVRKEYAKLLDPQEPLDSRMRELYRLKEDCLKTVAGVTVILEAIDTTDSVLLQHELAYNAGQSGREEAVPELERILRTTSYDVVTRHEAAEALGAIGSPLALQVLETHSAPTTEPEASIRETCELALARIAMKETKGDAAVAPPSGCEFVSVDPSPAFSALYSSTDEPVPLTVEELEAVLLDTSGRTRLFRRYMAMFTLRNLATEAAVAALCRGLREDTISALFRHEVAFVLGQLERPSSQPALIAALKDEEEAPMVRHEAAEALGAIADPATLPVLESYATHHEPIVRDSCVVALEMHKYWAHFNSLAHQQQEA,soluble
15,GPGSMSFKPTISVHATPQELSAAGCRKIVEIIETSGSQQWPLSIALAGGSTPKMTYARLHDEHLNLLREKRALRFFMGDERMVPADSTDSNYNMAREVLLHDIPDDLVFPFDTSAVTPSAEATSADAMRVAEAYGKQLASLLPLKSVGEAGAKVPVFDVVLLGLGSDGHTASIFPGSQAEKETDGKVVVSVGFPSETMKPKVWRVTLSPATIMQARNVIVLATGAEKKWVVDGILADTAHKAPVARFLRGCEGNVSFLLDKEIAENLAKF,soluble
16,GPGSMSLVESQKGMTDLIPCNEQCGGDYGNYSFGQGDLDVTVTVPLPENTTKKMLLVQITASKLIVGLRGKPPIISGDFYRPVKASECTWCIEDKRLLVINMVKTNSQHEEWWPCVVVGERQIDMKTLKPPSKHVSELDESAQATIAKMMFDQRQKMQNLPTSEEMRLQEMMRAAQGAK,soluble
17,GPGSMSSFAPNVKICEDISHISSAARDIILAAIDARVDKSAPVVLALSGGSTPKRLYEELHEKDLTLLQQHAVQFILGDERLVATDDEQSNFSMATKALLRDVPISDVIAIEPSAALATSKDEKGGVDGAWAVAQDYEKKLRNRLPCTQVNGTDMSVPIVDIVLLGFGADGHTASIFPDSVAATDESHVVSVSFPSPTMNPKVWRVTLSKTVIQHAKHVVVLACGKDKNWVVHGVLAEAPTGPLPVSRFLRECRGSVTMLLDAGSGEGLSA,soluble
18,GPGSMSSKAALLAVLAGSGQEHLVDDYDALSPSEQTTLATQILSYTNAQWKHMNVILRDSLRLLNLSNAAAGTGGGDAATAAPNITPPPADTIINVPALLAKRPSELAAIRAAGMRVVASGEGAVLLMAGGSGTRLGMTIPKGMVECDKLVSGRSLFAYHCQRIRKMERMAAAAAASLSQPSAVAAAGAAPVPPGAGRGTMPLLVTTSDQNDTATRQFFHDHDFFGLLPNQVFFSRQSSLPCYDEATGRVLMQARGSICLAPGGNAGVYESLAKASATTSGSQSVLAQIEARGVRYVQIVSVDNILARVGDPYFFGVAASYQAEVVLKTVPKVSAAEKVGVVAQVDGEWAVVEYTEIGDRRSAETDPATGELAFNCGSIASHCCSLDFLALAATYMETSTFYHAARKTIPTINGPAPAIKLEAFIFDVFRYAKDVPSRAERAKKAPLPDALQILQVDRSMEFAPIKNADGAAADTPTTAAQLLLDLHTRWVTEAIEAAPGTYAVASTSTSAMYTALERATALQRLRDGQCCWEISPLVSYEGEGLAAYVGQLIHRSATGSGVLGLEEATAGTANM,soluble
19,GPGSMSSLTEGARASHTSSKEAGYYRLQSPKHINIDPCVYEIRTMRGSGPGGQGTNSSSNKVELRADMELLSEFFDEELLAALRRHEAGGALTNDGTTIVVSCHEHRSALQNKEGCLRKLQTLLHKASWVPPAEAGLVERPSFIVTEQKVRRRKKSNMNRMTRSARSGSW,soluble
